Substitutions are numbered along the chain they refer to. In names and notes the source's numbering stands. Several values for one entry are separate records, joined by “and”; a condition that tells them apart may be missing. Equal entries are not always repeated.
T1: Lphn3^Lec–Olf DDD mutant (D397N+D399T, artificial N-linked glycosylation site at position 397) (mouse, UniProt Q80TS3-3 92-463, D397N | D399T, artificial N-linked glycan at position 397)
T1 construct: Latrophilin3, mouse, residues 92-463 (Lec and Olf domains) with two substitutions in the DDD loop
T1 sequence (looked up): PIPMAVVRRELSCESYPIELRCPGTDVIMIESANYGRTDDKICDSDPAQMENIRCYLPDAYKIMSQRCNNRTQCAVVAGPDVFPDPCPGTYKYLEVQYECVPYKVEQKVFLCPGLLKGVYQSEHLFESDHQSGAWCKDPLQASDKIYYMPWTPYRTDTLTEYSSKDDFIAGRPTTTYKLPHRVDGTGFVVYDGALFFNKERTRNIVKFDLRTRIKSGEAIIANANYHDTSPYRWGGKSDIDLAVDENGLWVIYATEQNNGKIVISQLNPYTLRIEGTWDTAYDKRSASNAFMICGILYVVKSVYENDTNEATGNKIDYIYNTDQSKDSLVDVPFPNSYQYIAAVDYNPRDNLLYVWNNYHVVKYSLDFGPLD

T2: FLRT2^LRR+Lphn3^Lec–Olf DDD mutant (mouse, UniProt Q8BLU0 35-362; Q80TS3-3 92-463, D397N | D399T, artificial N-linked glycan at position 397)
T2 construct: FLRT2, mouse, residues 35-362 (leucine-rich repeat domain); as m2; Latrophilin3, mouse, residues 92-463 with D397N+D399T; as m9
T2 sequence (looked up) 1: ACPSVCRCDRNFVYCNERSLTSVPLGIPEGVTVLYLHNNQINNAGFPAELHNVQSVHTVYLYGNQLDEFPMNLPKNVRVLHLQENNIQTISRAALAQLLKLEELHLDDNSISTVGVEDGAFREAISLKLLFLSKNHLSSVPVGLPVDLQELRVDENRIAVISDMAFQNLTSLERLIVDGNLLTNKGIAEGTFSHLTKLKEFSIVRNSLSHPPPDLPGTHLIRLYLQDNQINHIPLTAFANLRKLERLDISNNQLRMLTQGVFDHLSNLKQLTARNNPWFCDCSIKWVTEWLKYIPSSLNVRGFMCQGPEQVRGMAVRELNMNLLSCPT
T2 sequence (looked up) 2: T1 sequence (looked up)

T3: FLRT2^LRR+Lphn3^Lec–Olf (mixed in a 1:2 molar ratio) (mouse, UniProt Q8BLU0 35-362; Q80TS3-3 92-463)
T3 construct: FLRT2, mouse, residues 35-362 (leucine-rich repeat domain); as m2; Latrophilin3, mouse, residues 92-463 (Lec and Olf domains); as m1; Analyte mixture of the SPR experiment; by SEC-MALS the two proteins alone form a 1:1 complex; also called FLRT2^LRR+wild-type Lphn3^Lec–Olf
T3 sequence (looked up) 1: T2 sequence (looked up) 1
T3 sequence (looked up) 2: T1 sequence (looked up) with N306D, T308D

B1: mouse FLRT2 LRR domain (FLRT2^LRR) (domain or fragment, UniProt Q8BLU0 35-362, looked up)
chain: T2 sequence (looked up) 1
notes: FLRT2, mouse, residues 35-362 (leucine-rich repeat domain); pHLSec vector family; treated with endoglycosidase F1 before crystallisation
B2: rat Unc5D Ig domain 1 (Unc5D^Ig) (domain or fragment)
chain: not shown
notes: signal peptide in the construct; Unc5D, rat, residues 1-161 (Ig domain 1); Treated with endoglycosidase F1 before crystallisation
B3: rat Unc5D ectodomain (Unc5D^ecto), biotinylated at a C-terminal Avitag (domain or fragment)
chain: not shown
modifications: biotin on the C-terminal Avitag (enzymatic)
notes: signal peptide in the construct; Unc5D, rat, residues 1-382 (all extracellular domains); The form held on the streptavidin-coated CM5 chip in SPR; not shown: Avitag, C-terminal, kept
B4: mouse Latrophilin3 Lec+Olf (Lphn3^Lec–Olf) (domain or fragment, UniProt Q80TS3-3 92-463, looked up)
chain: T1 sequence (looked up) with N306D, T308D
notes: Latrophilin3 (Lphn3, ADGRL3), mouse, residues 92-463 (lectin and olfactomedin-like domains); pHLSec vector family; treated with endoglycosidase F1 before crystallisation; Two copies (Lphn3A, Lphn3B) stand in each 1:1:2 tetramer; also called Lphn3A^Lec–Olf; Lphn3B^Lec–Olf
B5: Lphn3^Lec–Olf DDD charge-reversal mutant (D397R, D398R and D399R) (domain or fragment, mouse, UniProt Q80TS3-3 92-463, looked up)
chain: T1 sequence (looked up) with N306R, D307R, T308R
notes: Latrophilin3, mouse, residues 92-463 (Lec and Olf domains) with three substitutions in the DDD loop
B6: rat Unc5D two Ig and TSP1 domains (Unc5D^IgIgTSP) (domain or fragment)
chain: not shown
notes: signal peptide in the construct; Unc5D, rat, residues 1-307 (Ig1, Ig2 and TSP1 domains); Deglycosylated before crystallisation

Assays:
[1] = molecular target: T4, rat Unc5D ectodomain (Unc5D^ecto) (rat, UniProt F1LW30 31-382); experiment: SEC-MALS; proteins mixed (Lphn3^Lec–Olf:FLRT:Unc5 2:1:1) and concentrated; Superdex 200 10/30, 10 mM Tris-HCl pH 7.5, 150 mM NaCl; details: both partners purified
T4 construct: signal peptide in the construct; Unc5D, rat, residues 1-382 (all extracellular domains); The form used in native MS and SEC-MALS

[2] = molecular target: B4; experiment: crystal structure; Lphn3^Lec–Olf, FLRT2^LRR and Unc5D^Ig deglycosylated, mixed 1:1:1, SEC; crystals at 18 °C, 0.1 M sodium cacodylate pH 6.5; 6 Å (PDB 5ftu); details: both partners purified
[3] = molecular target: B5; experiment: native MS; purified proteins mixed (FLRT2^LRR:Unc5D:Lphn3^Lec–Olf 1:1:2), 10–15 μM, 0.2 M ammonium acetate pH 7.5; Q-ToF; tandem MS of the tetramer peak at 150 V collision energy; details: both partners purified
[4] = molecular target: T1, Lphn3^Lec–Olf DDD mutant (D397N+D399T, …); experiment: as above; details: both partners purified
[5] = molecular target: B3; experiment: SPR; Unc5D^ecto biotinylated at a C-terminal Avitag and coupled to a streptavidin-coated CM5 chip; FLRT2^LRR or FLRT2^LRR+Lphn3^Lec–Olf (1:2 molar ratio) injected; equilibrium binding, 25 °C, PBS+0.005% polysorbate 20 pH 7.5; apparent Kd, 1:1 and 1:(1:1) models, called indicative only; details: both partners purified
[6] = molecular target: B1; experiment: crystal structure; Lphn3^Lec–Olf, FLRT2^LRR and Unc5D^Ig deglycosylated, mixed 1:1:1, SEC; crystals at 18 °C, 0.1 M sodium cacodylate pH 6.5; 6 Å (PDB 5ftu); details: both partners purified
[7] = molecular target: T2, FLRT2^LRR+Lphn3^Lec–Olf DDD mutant; experiment: SPR; Unc5D^ecto biotinylated at a C-terminal Avitag and coupled to a streptavidin-coated CM5 chip; FLRT2^LRR or FLRT2^LRR+Lphn3^Lec–Olf (1:2 molar ratio) injected; equilibrium binding, 25 °C, PBS+0.005% polysorbate 20 pH 7.5; apparent Kd, 1:1 and 1:(1:1) models, called indicative only; details: both partners purified
[8] = molecular target: T3, FLRT2^LRR+Lphn3^Lec–Olf (mixed in a 1:2 …); experiment: as above; details: both partners purified
[9] = molecular target: the molecule itself; experiment: crystal structure; Lphn3^Lec–Olf, FLRT2^LRR and Unc5D^Ig deglycosylated, mixed 1:1:1, SEC; crystals at 18 °C, 0.1 M sodium cacodylate pH 6.5; 6 Å (PDB 5ftu)
[10] = molecular target: B1; experiment: native MS; purified proteins mixed (FLRT2^LRR:Unc5D:Lphn3^Lec–Olf 1:1:2), 10–15 μM, 0.2 M ammonium acetate pH 7.5; Q-ToF; tandem MS of the tetramer peak at 150 V collision energy; details: both partners purified
[11] = molecular target: the molecule itself; experiment: as above
[12] = molecular target: B1; experiment: crystal structure; Lphn3^Lec–Olf, FLRT2^LRR and Unc5D^IgIgTsp deglycosylated, mixed 2:1:1; crystals at 18 °C; 3.4 Å (PDB 5ftt); details: both partners purified

T4 sequence (F1LW30 31-382): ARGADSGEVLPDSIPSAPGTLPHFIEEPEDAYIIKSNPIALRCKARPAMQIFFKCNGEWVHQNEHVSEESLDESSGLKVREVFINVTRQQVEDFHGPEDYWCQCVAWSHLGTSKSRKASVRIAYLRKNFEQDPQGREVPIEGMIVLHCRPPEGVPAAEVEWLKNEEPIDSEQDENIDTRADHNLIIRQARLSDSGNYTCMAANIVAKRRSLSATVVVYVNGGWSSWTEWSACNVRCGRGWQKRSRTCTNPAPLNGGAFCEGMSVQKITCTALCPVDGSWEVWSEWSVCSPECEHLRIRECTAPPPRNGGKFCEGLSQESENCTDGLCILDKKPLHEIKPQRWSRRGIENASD

Binder: B1
stoichiometry N [1]: 1 | binding result [2]: binds | binding result [3]: binds | binding result [4]: binds | Kd [5]: 460 nM

Binder: B2
binding result [6]: binds

Binder: B3
binding result [7]: binds | Kd [8]: 94 nM

Binder: B4
binding result [9]: binds | stoichiometry N [10]: 1 and 2

Binder: B5
binding result [11]: binds

Binder: B6
binding result [12]: binds

From article PMC4838878, “Super-complexes of adhesion GPCRs and neural guidance receptors” (Nature Communications, 2016)
